From the supplement of paper PMC9112550, “Optimization of the antimicrobial peptide Bac7 by deep mutational scanning” (BMC Biology, 2022)

system: Escherichia coli TOP10; test: shrunken log2 fold change of peptide-encoding DNA abundance (4.5 h post-induction vs induction); higher = less antimicrobial activity (less host growth inhibition); conditions: time post-induction: 4.5 h; library: site-saturation at positions 5, 18, 19, 20
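Further: peptides expressed intracellularly from a pBAD plasmid library in pooled LB shake-flask culture, induced with 0.3% L-arabinose, DNA abundance read by NGS, three biological replicates, DESeq2 with apeglm shrinkage.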

| Sequence | shrunken log2 fold change |
| --- | --- |
| RRIRKRPPRLPRPRPRPIIMPRP | -0.419 |
| RRIRGRPPRLPRPRPRPEFNPRP | 0.669 |
| RRIRHRPPRLPRPRPRPWLFPRP | -0.0716 |
| RRIRSRPPRLPRPRPRPHHKPRP | -0.564 |
| RRIRCRPPRLPRPRPRPYPLPRP | -0.191 |
| RRIRPRPPRLPRPRPRPNSQPRP | -0.314 |
| RRIRERPPRLPRPRPRPGLVPRP | -0.061 |
| RRIRWRPPRLPRPRPRPGGRPRP | 0.418 |
| RRIRCRPPRLPRPRPRPIVVPRP | -0.34 |
| RRIRIRPPRLPRPRPRPKFLPRP | -0.537 |
| RRIRSRPPRLPRPRPRPYSYPRP | -0.393 |
| RRIRVRPPRLPRPRPRPIEIPRP | -0.00163 |
| RRIRGRPPRLPRPRPRPENTPRP | 0.841 |
| RRIRGRPPRLPRPRPRPQQSPRP | 0.465 |
| RRIRTRPPRLPRPRPRPGKDPRP | 0.0234 |
| RRIRARPPRLPRPRPRPQNCPRP | -0.19 |
| RRIRKRPPRLPRPRPRPMIGPRP | 0.0437 |
| RRIRYRPPRLPRPRPRPHLDPRP | -0.185 |
| RRIRARPPRLPRPRPRPDMDPRP | 0.3 |
| RRIRRRPPRLPRPRPRPDISPRP | 0.0322 |
| RRIRTRPPRLPRPRPRPMRLPRP | -0.0194 |
| RRIRARPPRLPRPRPRPTRYPRP | 0.356 |
| RRIRPRPPRLPRPRPRPKYDPRP | -0.612 |
| RRIRTRPPRLPRPRPRPRKDPRP | -0.0522 |
| RRIRTRPPRLPRPRPRPIATPRP | 0.227 |

| Sequence | shrunken log2 fold change |
| --- | --- |
| RRIRVRPPRLPRPRPRPLCCPRP | -0.0983 |
| RRIRLRPPRLPRPRPRPKHGPRP | -0.0363 |
| RRIRHRPPRLPRPRPRPVKHPRP | 0.0596 |
| RRIRYRPPRLPRPRPRPESLPRP | -0.0595 |
| RRIRWRPPRLPRPRPRPMYIPRP | -0.144 |
| RRIRFRPPRLPRPRPRPEDCPRP | 0.121 |
| RRIRMRPPRLPRPRPRPVEVPRP | 0.389 |
| RRIRMRPPRLPRPRPRPLMLPRP | -0.0158 |
| RRIRARPPRLPRPRPRPDDLPRP | -0.00225 |
| RRIRCRPPRLPRPRPRPNVPPRP | -0.154 |
| RRIRQRPPRLPRPRPRPYEPPRP | 0.00408 |
| RRIRIRPPRLPRPRPRPCMHPRP | -0.171 |
| RRIRCRPPRLPRPRPRPWYVPRP | -0.461 |
| RRIRFRPPRLPRPRPRPEGNPRP | -0.0429 |
| RRIRPRPPRLPRPRPRPDPLPRP | -0.379 |
| RRIRERPPRLPRPRPRPHNTPRP | -0.731 |
| RRIRRRPPRLPRPRPRPYADPRP | -0.0932 |
| RRIRYRPPRLPRPRPRPNQNPRP | -0.967 |
| RRIRERPPRLPRPRPRPHYSPRP | -0.16 |
| RRIRNRPPRLPRPRPRPTMSPRP | -0.453 |
| RRIRRRPPRLPRPRPRPWESPRP | 0.0904 |
| RRIRMRPPRLPRPRPRPYNRPRP | -0.336 |
| RRIRHRPPRLPRPRPRPALRPRP | 0.269 |
| RRIRYRPPRLPRPRPRPWSWPRP | 0.0225 |
| RRIRDRPPRLPRPRPRPYCMPRP | -0.28 |

| Sequence | shrunken log2 fold change |
| --- | --- |
| RRIRRRPPRLPRPRPRPWSCPRP | 0.0681 |
| RRIRLRPPRLPRPRPRPMAQPRP | -0.00088 |
| RRIRYRPPRLPRPRPRPFVSPRP | 0.00884 |
| RRIRARPPRLPRPRPRPQCPPRP | 0.108 |
| RRIRMRPPRLPRPRPRPNCVPRP | -0.00674 |
| RRIRVRPPRLPRPRPRPQYQPRP | -0.302 |
| RRIRMRPPRLPRPRPRPSDQPRP | -0.198 |
| RRIRLRPPRLPRPRPRPILGPRP | -0.0186 |
| RRIRSRPPRLPRPRPRPFICPRP | -0.163 |
| RRIRCRPPRLPRPRPRPYKNPRP | -0.984 |
| RRIRIRPPRLPRPRPRPKYDPRP | -0.51 |
| RRIRARPPRLPRPRPRPWQIPRP | -0.0641 |
| RRIRDRPPRLPRPRPRPLLSPRP | 0.447 |
| RRIRWRPPRLPRPRPRPVYCPRP | -0.196 |
| RRIRWRPPRLPRPRPRPWKLPRP | -0.00166 |
| RRIRKRPPRLPRPRPRPNYTPRP | -0.281 |
| RRIRARPPRLPRPRPRPDPVPRP | 0.688 |
| RRIRGRPPRLPRPRPRPNVWPRP | 0.728 |
| RRIRCRPPRLPRPRPRPYVDPRP | -0.232 |
| RRIRVRPPRLPRPRPRPMCPPRP | 0.0857 |
| RRIRGRPPRLPRPRPRPPPTPRP | 1.47 |
| RRIRHRPPRLPRPRPRPYKIPRP | -0.373 |
| RRIRNRPPRLPRPRPRPADHPRP | -0.0958 |
| RRIRMRPPRLPRPRPRPKFFPRP | 0.0606 |
| RRIRFRPPRLPRPRPRPSKFPRP | -0.434 |

| Sequence | shrunken log2 fold change |
| --- | --- |
| RRIRYRPPRLPRPRPRPQYMPRP | -0.192 |
| RRIRGRPPRLPRPRPRPICFPRP | 0.535 |
| RRIRGRPPRLPRPRPRPGNLPRP | -0.639 |
| RRIRYRPPRLPRPRPRPVTSPRP | -0.168 |
| RRIRERPPRLPRPRPRPVYWPRP | 0.0789 |
| RRIRPRPPRLPRPRPRPALNPRP | 0.0983 |
| RRIRYRPPRLPRPRPRPVCYPRP | -0.209 |
| RRIRKRPPRLPRPRPRPIGAPRP | 0.479 |
| RRIRIRPPRLPRPRPRPHGEPRP | -0.178 |
| RRIRCRPPRLPRPRPRPEGSPRP | -0.043 |
| RRIRFRPPRLPRPRPRPCWEPRP | -0.356 |
| RRIRHRPPRLPRPRPRPQPEPRP | -0.0374 |
| RRIRLRPPRLPRPRPRPWRTPRP | 0.0595 |
| RRIRLRPPRLPRPRPRPQMIPRP | -0.173 |
| RRIRHRPPRLPRPRPRPTPKPRP | -0.0377 |
| RRIRLRPPRLPRPRPRPQDKPRP | -0.431 |
| RRIRRRPPRLPRPRPRPLTDPRP | 0.223 |
| RRIRQRPPRLPRPRPRPMNYPRP | -0.182 |
| RRIRTRPPRLPRPRPRPCRTPRP | -0.0391 |
| RRIRPRPPRLPRPRPRPQDNPRP | -0.548 |
| RRIRFRPPRLPRPRPRPNCCPRP | 0.0101 |
| RRIRDRPPRLPRPRPRPCICPRP | 0.159 |
| RRIRDRPPRLPRPRPRPRQEPRP | 0.0935 |
| RRIRWRPPRLPRPRPRPINWPRP | 0.0481 |
| RRIRNRPPRLPRPRPRPNHCPRP | -0.216 |

| Sequence | shrunken log2 fold change |
| --- | --- |
| RRIRPRPPRLPRPRPRPDQEPRP | -0.151 |
| RRIRERPPRLPRPRPRPKPPPRP | 0.242 |
| RRIRCRPPRLPRPRPRPFIWPRP | -0.717 |
| RRIRIRPPRLPRPRPRPYAFPRP | -1.1 |
| RRIRLRPPRLPRPRPRPSKRPRP | -0.646 |
| RRIRLRPPRLPRPRPRPHRPPRP | -0.189 |
| RRIRERPPRLPRPRPRPNFHPRP | -0.382 |
| RRIRQRPPRLPRPRPRPIWAPRP | -0.0792 |
| RRIRMRPPRLPRPRPRPHCCPRP | -0.0266 |
| RRIRTRPPRLPRPRPRPPYCPRP | -0.112 |
| RRIRDRPPRLPRPRPRPRTDPRP | 0.0936 |
| RRIRERPPRLPRPRPRPINKPRP | -0.506 |
| RRIRGRPPRLPRPRPRPKQAPRP | 0.865 |
| RRIRCRPPRLPRPRPRPHSRPRP | 0.0572 |
| RRIRDRPPRLPRPRPRPIWYPRP | -0.0481 |
| RRIRFRPPRLPRPRPRPSMQPRP | -0.209 |
| RRIRPRPPRLPRPRPRPSIEPRP | -0.0734 |
| RRIRARPPRLPRPRPRPAWNPRP | -0.132 |
| RRIRMRPPRLPRPRPRPWPVPRP | 0.287 |
| RRIRFRPPRLPRPRPRPTYIPRP | -0.434 |
| RRIRSRPPRLPRPRPRPGAAPRP | 0.603 |
| RRIRQRPPRLPRPRPRPTEDPRP | 0.0148 |
| RRIRGRPPRLPRPRPRPWTRPRP | -0.0814 |
| RRIRPRPPRLPRPRPRPQEWPRP | 0.0248 |
| RRIRQRPPRLPRPRPRPRTYPRP | -0.049 |

| Sequence | shrunken log2 fold change |
| --- | --- |
| RRIRVRPPRLPRPRPRPPYIPRP | -0.28 |
| RRIRKRPPRLPRPRPRPNIHPRP | -0.112 |
| RRIRWRPPRLPRPRPRPGYPPRP | -0.251 |
| RRIRGRPPRLPRPRPRPRASPRP | 1.05 |
| RRIRMRPPRLPRPRPRPKVYPRP | 0.0391 |
| RRIRLRPPRLPRPRPRPGRHPRP | 0.0767 |
| RRIRERPPRLPRPRPRPGAFPRP | -0.0461 |
| RRIRVRPPRLPRPRPRPGCHPRP | 0.363 |
| RRIRDRPPRLPRPRPRPIGLPRP | -0.00129 |
| RRIRLRPPRLPRPRPRPPLYPRP | 1.61 |
| RRIRPRPPRLPRPRPRPKFDPRP | 0.163 |
| RRIRPRPPRLPRPRPRPSAWPRP | 0.368 |
| RRIRPRPPRLPRPRPRPDMYPRP | -0.192 |
| RRIRRRPPRLPRPRPRPKYGPRP | -0.000734 |
| RRIRCRPPRLPRPRPRPTSEPRP | 0.108 |
| RRIRTRPPRLPRPRPRPLRGPRP | 0.897 |
| RRIRMRPPRLPRPRPRPPKDPRP | 0.622 |
| RRIRERPPRLPRPRPRPGYWPRP | -0.0572 |
| RRIRARPPRLPRPRPRPKYWPRP | 0.233 |
| RRIRARPPRLPRPRPRPSLLPRP | 0.321 |
| RRIRLRPPRLPRPRPRPGFAPRP | 0.36 |
| RRIRMRPPRLPRPRPRPKFEPRP | 0.109 |
| RRIRWRPPRLPRPRPRPWLDPRP | -0.231 |
| RRIRYRPPRLPRPRPRPTECPRP | -0.0134 |
| RRIRHRPPRLPRPRPRPYGNPRP | -0.298 |
